Reference: the RNAGym collection of RNA variant scans (doi:10.7554/elife.90254)

B1: LINE1-mini (parent)
chain: GGCAGAGCUCAACACAGCGUGGCAAAGUGGCUGUGGCUAGACUGCC

Variants of: B1
Assay: self-cleavage, relative activity (ratio to wild type); higher = more cleavage; in vitro, sequencing; the parent is a self-cleaving ribozyme

Variant	self-cleavage
GGCACAGCUCAACACAGCGUGGCAAAGUGGCUGUGGCUAGAUUGCC [G5C C42U]	0.05
GGCAAAGCUCAACACAGCCUGGCAAAGUGGCUGUGGCUAGACUGCC [G5A G19C]	0.06
GGCAGAGCUCAACACAGCGUGGCAAAGUGGGUGUGGCUAGACUGAC [C31G C45A]	0.04
GGCAGAGCUCAACACAGCGUGGCAAAGUGGCUUCGGCUAGACUGCC [G33U U34C]	0.23
GGCAGAGCUCAACACAGCGUGGCAAAGUGGCUGUGGCUAAACUGGC [G40A C45G]	0.13
GGCAGAGCUCAACACAGCGUGGCAAAGUGACUGUGGCUAUACUGCC [G30A G40U]	0.18
GGCGGAGCUCAACACAGCGUGCCAAAGUGGCUGUGGCUAGACUGCC [A4G G22C]	0.91
GUCAGAGCUCAACACAGCAUGGCAAAGUGGCUGUGGCUAGACUGCC [G2U G19A]	0.08
GGCAGAGCUAAACACAGCGUGGCAAAGUGGCUGUGGCUGGACUGCC [C10A A39G]	0.04
GGCAGAGCUCAACACACCAUGGCAAAGUGGCUGUGGCUAGACUGCC [G17C G19A]	1.14
GGCAGAGAUCAACACAGCGUGGCAAAGUGGCAGUGGCUAGACUGCC [C8A U32A]	0.16
GGCGGAGCUCAACACGGCGUGGCAAAGUGGCUGUGGCUAGACUGCC [A4G A16G]	0.16
CGCAGAGCUCAACUCAGCGUGGCAAAGUGGCUGUGGCUAGACUGCC [G1C A14U]	0.02
GGCAGCGCUCAAAACAGCGUGGCAAAGUGGCUGUGGCUAGACUGCC [A6C C13A]	0.12
GUCAGAGCUCAACACAGCGUGGCAAAGUGGCCGUGGCUAGACUGCC [G2U U32C]	0.03
UGCAGAGCUCAACAGAGCGUGGCAAAGUGGCUGUGGCUAGACUGCC [G1U C15G]	0.04
GGCAGAGCUCAACACAGCGUGGCAAUGUGGCUGUGGCUAGAGUGCC [A26U C42G]	0.1
GGCAUAGCUCAACACGGCGUGGCAAAGUGGCUGUGGCUAGACUGCC [G5U A16G]	0.06
GGCAGAGCUCAACACAGCGUGGCAAAGUGGAUGUGGCUAGACUGCA [C31A C46A]	0.13
GGCAGAGCUCAAUACAGCGUCGCAAAGUGGCUGUGGCUAGACUGCC [C13U G21C]	0.25
GACAGAGCUCAACACAGCAUGGCAAAGUGGCUGUGGCUAGACUGCC [G2A G19A]	1.72
GGCAGAGCUCAACACAGCGUGCCAAAGUGGCUUUGGCUAGACUGCC [G22C G33U]	0.06
GGCAGUGCUCAACACAGCGUGGCAAAGUGGCUGUGGCUUGACUGCC [A6U A39U]	0.35

Variant	self-cleavage
GGCAGAGCCCAACACAGCGUGGCAAAGUAGCUGUGGCUAGACUGCC [U9C G29A]	0.02
GGCAGAGCUCAACACAGCGAGGCAAAGUGGCUGUGGCUAGAUUGCC [U20A C42U]	0.12
GGCAGAGCCCAACACAGCGUGGCAAAGUGGCUGUGGCUAGAAUGCC [U9C C42A]	0.03
GGCAGAGCUCAACACAGCGUGACAAAGUGGCUCUGGCUAGACUGCC [G22A G33C]	0.05
GGCAGAGCUCAACACAGCGUGGCAAAGUGGCUGUGGGUAGACUGCG [C37G C46G]	0.17
GGCAGAGCGCAACACAGCGUGGCAAACUGGCUGUGGCUAGACUGCC [U9G G27C]	0.08
GGCAGAGCUCGACACAGCGUGGCAAAGUGGCUGUGGCCAGACUGCC [A11G U38C]	0.03
GGCAGAGCUCAAAACACCGUGGCAAAGUGGCUGUGGCUAGACUGCC [C13A G17C]	0.1
GGUAGAGCUCAACACAGCGUGGCAAAGUGGCUGUGGCUAGUCUGCC [C3U A41U]	0.56
GGCAGAGGUCAACACAGCGUGGCAAAGUGGCUGUGGCUAGACGGCC [C8G U43G]	0.88
GGCAGAGCUCAACACAGCGUGGCAAAGUGGCUGUGGGAAGACUGCC [C37G U38A]	0.03
GGCAGAGCUCAACACAGCGUGGCAAAGUGGCUGUGCCAAGACUGCC [G36C U38A]	0.06
GGCAGAGCUCAUCACAGCGUGGCAAAGUGGCUGUGGCCAGACUGCC [A12U U38C]	0.14
GGCAGAGCCCAACACAGCGUGGCAAAGUGGCUGUGGCUAGACCGCC [U9C U43C]	0.02
GGGAUAGCUCAACACAGCGUGGCAAAGUGGCUGUGGCUAGACUGCC [C3G G5U]	0.11
GGCAGAGCUCAACACAGCCUGGCAAAGUUGCUGUGGCUAGACUGCC [G19C G29U]	0.54
GGCAGAGCUCAACACAGCGUGGCUAAGUGGCUAUGGCUAGACUGCC [A24U G33A]	0.05
GGCACAGCUCAACACAGCGUGGCAAAAUGGCUGUGGCUAGACUGCC [G5C G27A]	0.05
GGCAGAGCUCAACGCAGCGUGGCAAAGUCGCUGUGGCUAGACUGCC [A14G G29C]	0.37
GGCAGAGCUCGACACAGUGUGGCAAAGUGGCUGUGGCUAGACUGCC [A11G C18U]	0.04
GGCAGAGAUCAACACAGCGUGGCAAAGUGGAUGUGGCUAGACUGCC [C8A C31A]	0.36
GGCAGAGCUCAACAUAGCGUGGCAAAGUGGCUGUGGCUAGUCUGCC [C15U A41U]	0.33
GGCAGAGCUCAACACAGCGUGACAAAGUGGCUGUGGCUCGACUGCC [G22A A39C]	0.09

Variant	self-cleavage
GGCAGAGCUCAACACAGCGUUGCAAAUUGGCUGUGGCUAGACUGCC [G21U G27U]	0.54
GGCAGAGCUCAACACAGCGUUGCAAAGUGGCUGUGGCUAGAGUGCC [G21U C42G]	0.04
GGCAGAGCUCAACACAGCGUGGCAAACUGGCUGUGGCUAGACUGAC [G27C C45A]	0.29
UGCAGAGCUCAACACAGCGUGGCAAAGUGGCUGUGGCUAGACUGCG [G1U C46G]	0.74
GGCACAGCUCAACACAGCGUGGCAAAGCGGCUGUGGCUAGACUGCC [G5C U28C]	0.05
GGCAUAGCUCAACAUAGCGUGGCAAAGUGGCUGUGGCUAGACUGCC [G5U C15U]	0.08
GGCAGAGCUCAACACAGCGUGGCAAAGUGACUAUGGCUAGACUGCC [G30A G33A]	0.1
AGCAGAGCUCACCACAGCGUGGCAAAGUGGCUGUGGCUAGACUGCC [G1A A12C]	0.04
GGCAGAGCUCAACACCGCGUGGCAAAGUGGCUGUGCCUAGACUGCC [A16C G36C]	0.04
GGAAGAGCACAACACAGCGUGGCAAAGUGGCUGUGGCUAGACUGCC [C3A U9A]	0.59
GGCCGAGCUCAACACAGCGUGGCAAAGUGGCUGUCGCUAGACUGCC [A4C G35C]	0.11
GGCAGAGCUCAACACAGCAUGGCAAAAUGGCUGUGGCUAGACUGCC [G19A G27A]	1.19
GGCAGAGCUCAACACAGCGUGGCAAAGUGGCUGUUGCUAGACUACC [G35U G44A]	0.13
GGCGGAGCUCAACACAGCGUGGCAAAGUGGCUGUGGCUAAACUGCC [A4G G40A]	0.13
GGCAGAGCUCAACACAGCGUGGCAAAGUGGAUGUGGCUAGACUGCG [C31A C46G]	0.11
GGCAGAGCUCAACACAGCGUGGAAAAGUGGCUGUGGCCAGACUGCC [C23A U38C]	0.52
GGCAGAGCUCAACACAGCGUGGCAAAGUGGCUGUGGCUCAACUGCC [A39C G40A]	0.08
GGCAGAGCUCAACACAGGGUGGCAAAGUGGCAGUGGCUAGACUGCC [C18G U32A]	0.05
GGCAGAGCUCAACACAGCGUGGCAAUGAGGCUGUGGCUAGACUGCC [A26U U28A]	0.88
GGCAGAGCUCAACAGAGCGUGGCAAAGUGGCUGUGGCAAGACUGCC [C15G U38A]	0.03
GUCAGAGCUCAACACAGCGUGGCAAAGUGGCUGUAGCUAGACUGCC [G2U G35A]	0.05
GGCAGAGCUCAACACAGCGUGGCAAAGUGGCUGUGGCCAGACUGUC [U38C C45U]	1.38
GGCAGAGCACAUCACAGCGUGGCAAAGUGGCUGUGGCUAGACUGCC [U9A A12U]	0.13

Variant	self-cleavage
GGCAGAGCUCAACACAGCGUGGCAAAGUGUCUGUGGCUAGACCGCC [G30U U43C]	0.1
GGCAGAGCUCAACACAGCGUGGCAAAGCGGCUGUGGCUCGACUGCC [U28C A39C]	0.1
GGCAGAGCUCUACACAGCGUGGCAAAGUGGCCGUGGCUAGACUGCC [A11U U32C]	0.04
GGCAGCGCUCAACACAGCGUGACAAAGUGGCUGUGGCUAGACUGCC [A6C G22A]	0.66
GGGAGAGCUCAACACAGCGUGGCAAAGUGGCUGUGGCUAUACUGCC [C3G G40U]	0.13
GGAAGAGCUCAACACAGCGUGGCGAAGUGGCUGUGGCUAGACUGCC [C3A A24G]	0.78
GGCAGAGCUCAGCACAGCGUGGCAAAGCGGCUGUGGCUAGACUGCC [A12G U28C]	0.02
GGUCGAGCUCAACACAGCGUGGCAAAGUGGCUGUGGCUAGACUGCC [C3U A4C]	0.26
GGCAGAGCUCAAGACAGCGUGGCAAAGUGGCUGUGGCUACACUGCC [C13G G40C]	0.14
GGCAGAGCUCAACACAGCGUGGCAAGGUGGCUCUGGCUAGACUGCC [A26G G33C]	0.08
GGCAGAGCUCAACACAGCGUGGGAAAGUGGCCGUGGCUAGACUGCC [C23G U32C]	0.28
GGCAGAGCUCAACACAGCGUGGGAAAGUGGCUGUGGCUAGUCUGCC [C23G A41U]	0.53
GGCAGAGCUCAACAGAGCGUGGCAAAGUGUCUGUGGCUAGACUGCC [C15G G30U]	0.03
GGCAGAGCUCAACACAGCGUGGCAAAGCGGCUGUGGCUAGAUUGCC [U28C C42U]	0.15
GGCAGAGCUCAACACAGCGUGGCAAAGUGACUGUGGCUAGACUCCC [G30A G44C]	0.56
GGCAGAGCUCAACACAGCGUGGCAAAGUGGCUUUGGCUUGACUGCC [G33U A39U]	0.15
GGCAGAGCACAACACAGCGUGGCGAAGUGGCUGUGGCUAGACUGCC [U9A A24G]	0.2
GGCAUAGCUCAACACAGCGCGGCAAAGUGGCUGUGGCUAGACUGCC [G5U U20C]	0.05
GGCAGUGCUCAACACAGCGUGGCAAAGUGGCUGUGGCUGGACUGCC [A6U A39G]	0.04
GGCAGAGCAAAACACAGCGUGGCAAAGUGGCUGUGGCUAGACUGCC [U9A C10A]	0.04
AGCAGGGCUCAACACAGCGUGGCAAAGUGGCUGUGGCUAGACUGCC [G1A A6G]	0.09
GGCAGAGCUCAACACAGCGUGGCAAGGUGGCUGUGGCCAGACUGCC [A26G U38C]	0.44
GGAAGAGCUCAACACAGCGUGGCAAGGUGGCUGUGGCUAGACUGCC [C3A A26G]	0.67

Variant	self-cleavage
GGCAGAGCUCAACACAGCGCGGAAAAGUGGCUGUGGCUAGACUGCC [U20C C23A]	0.49
GGCAGAGCUCAACACAGCGUGGCAAAGUGGCUGCGGCUAGACUGUC [U34C C45U]	0.14
GGCAGAGCUCAACACAGAAUGGCAAAGUGGCUGUGGCUAGACUGCC [C18A G19A]	1.05
GGCAGAGCUCAACACAGCGUGGGAAAGUGGCUGUGGCUAGCCUGCC [C23G A41C]	0.04
GGCAGAGCCCAACACAGCGUGGCAAAGUGGCUGUGGCUAGUCUGCC [U9C A41U]	0.06
GGCCGAGCUCAACACAGCGUGGCAAAGUGGCUGUGGCUUGACUGCC [A4C A39U]	0.09
GCCAGAGCUCAACACAGCGUGGCGAAGUGGCUGUGGCUAGACUGCC [G2C A24G]	0.09
GGCAGAGCUCAACACAGCGUGGCAAAGUUGCUGUGGCUAAACUGCC [G29U G40A]	0.15
GCCAGAGCUCAACACUGCGUGGCAAAGUGGCUGUGGCUAGACUGCC [G2C A16U]	0.04
GGCAGAGCUCAGCACAGCGUGGCAAAGUGACUGUGGCUAGACUGCC [A12G G30A]	0.03
GGCAGAGCUAAACUCAGCGUGGCAAAGUGGCUGUGGCUAGACUGCC [C10A A14U]	0.05
GGCAGAGCUCAACGCAGCGUGGCAAAGUGGCUGUGUCUAGACUGCC [A14G G36U]	0.12
GGCAGAGCUCAACACAGCGUGACAAAGUGGCUGUGUCUAGACUGCC [G22A G36U]	0.15
GGCAGAGAUCAACACAGCGUGGCAAAGUGGCUGUGGCUUGACUGCC [C8A A39U]	0.45
GGCAGAGCUCAACACAGCGUGGCAAAGUGGCUGUGGCCACACUGCC [U38C G40C]	0.06
GGCAGAGCUCAACACAGCGUGGCAAAGUGGCUGUGGCUAGACUGUG [C45U C46G]	0.39
GGCAGAGCUCACCUCAGCGUGGCAAAGUGGCUGUGGCUAGACUGCC [A12C A14U]	0.05
GACACAGCUCAACACAGCGUGGCAAAGUGGCUGUGGCUAGACUGCC [G2A G5C]	0.06
GGCAGAGCUCAACACAGCGUAGCAAAGGGGCUGUGGCUAGACUGCC [G21A U28G]	1.2
GGCAGAGCUCAACACAGCAUGGCAAAGUGUCUGUGGCUAGACUGCC [G19A G30U]	2.03
